Laboratory results taken from patent US20250382344A1, “Soluble GLP1/GIP/NPY2 Receptor Triple Agonists” (Boehringer Ingelheim International GmH, priority 2024, published 2025).
*1 amine or outer side, *2 acyl side, *3 side chain or, on linkers, in order; H or OH if unused. Where no end group is shown, it is not given here. Side-chain parts run from the residue outwards. [ ]: non-standard residue; d: D form. The star is where a group is joined. γDab = gamma-linked diaminobutyric acid unit, O=C([C@H](CCN[*:1])N[*:3])[*:2]; C20 diacid = O=C(O)CCCCCCCCCCCCCCCCCCC(=O)*; C18 diacid = O=C(O)CCCCCCCCCCCCCCCCC(=O)*; γGlu = O=C(O)[C@H](CCC(=O)[*:2])N[*:1]; εLys = N[C@@H](CCCCN[*:1])C(=O)[*:2]; dtOrn = not defined here; AEEA = NCCOCCOCC(=O)O; Aib = CC(C)(N)C(=O)O

T1: human neuropeptide Y2 receptor (human, UniProt P49146 1-381)
T1 sequence (looked up): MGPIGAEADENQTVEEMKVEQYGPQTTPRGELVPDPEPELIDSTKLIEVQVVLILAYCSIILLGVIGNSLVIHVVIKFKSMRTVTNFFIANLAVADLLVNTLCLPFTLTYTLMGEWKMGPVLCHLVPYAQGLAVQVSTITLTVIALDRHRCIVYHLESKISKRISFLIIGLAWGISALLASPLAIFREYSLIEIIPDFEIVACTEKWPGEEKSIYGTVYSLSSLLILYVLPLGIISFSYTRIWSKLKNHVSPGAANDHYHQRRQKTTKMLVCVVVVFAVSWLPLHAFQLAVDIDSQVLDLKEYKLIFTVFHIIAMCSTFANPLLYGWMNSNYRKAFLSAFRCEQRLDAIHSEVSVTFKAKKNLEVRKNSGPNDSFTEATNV

T2: human GIP receptor (human, UniProt P48546 22-466)
T2 sequence (looked up): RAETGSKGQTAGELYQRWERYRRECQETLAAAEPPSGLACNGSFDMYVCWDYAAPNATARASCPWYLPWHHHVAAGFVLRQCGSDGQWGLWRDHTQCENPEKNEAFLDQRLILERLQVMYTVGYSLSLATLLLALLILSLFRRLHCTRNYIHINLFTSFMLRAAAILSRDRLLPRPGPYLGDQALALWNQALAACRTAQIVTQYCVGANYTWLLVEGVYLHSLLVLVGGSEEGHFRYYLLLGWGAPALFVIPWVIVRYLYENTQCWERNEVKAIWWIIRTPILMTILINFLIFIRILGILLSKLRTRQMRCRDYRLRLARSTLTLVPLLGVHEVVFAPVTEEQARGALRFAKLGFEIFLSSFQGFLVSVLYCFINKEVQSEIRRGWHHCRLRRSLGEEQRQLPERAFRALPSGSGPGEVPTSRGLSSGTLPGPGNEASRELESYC


Experiments:
Assay in all cases: cell-based or functional assay
human GLP-1 receptor = human GLP-1 receptor (human, UniProt P43220 24-463)
[1] = target: T1, human neuropeptide Y2 receptor
human GIP receptor = target: T2, human GIP receptor

| Binder | EC50, CreLuc reporter, 0.5% hP (human GLP-1 receptor) | EC50, CreLuc reporter, 100% hP (human GLP-1 receptor) | EC50, CreLuc reporter, 0.5% hP [1] | EC50, CreLuc reporter, 100% hP [1] | EC50, CreLuc reporter, 0.5% hP (human GIP receptor) | EC50, CreLuc reporter, 100% hP (human GIP receptor) |
| --- | --- | --- | --- | --- | --- | --- |
| YXEGTFTSDYSIXLEKQAEXAFVRHLINKXTRQRY (Aib at 2, 20, 30; aMeL at 13; Lys29 epsilon-amino: C20DA-gGlu-gGlu-gGlu-gGlu-gGlu-gGlu-eLys; C-terminal amide) [Compound 103] | 0.4 nM | 0.6 nM | 25.9 nM | 131 nM | – | – |
| YXEGTFTSDYSIXLEKQAQXAFVRHLINKXTRQXY (Aib at 2, 13, 20, 30; bhArg at 34; Lys29 epsilon-amino: C18DA-gGlu-gGlu-gGlu-gGlu-gGlu-gGlu-eLys; C-terminal amide) [Compound 146] | 1 nM | – | 51.5 nM | 89.8 nM | – | – |
| YXEGTFTSDYSIXLDKQAQXAFVRYLINKXTRQRY (Aib at 2, 13, 20, 30; Lys29 epsilon-amino: C18DA-gGlu-gGlu-gGlu-gGlu-gGlu-gGlu-eLys; C-terminal amide) [Compound 153] | – | – | 40 nM | 65.5 nM | 0.1 nM | – |
| YXEGTFTSDYAIXLEKQAQXAFVRHLINKXTRQRY (Aib at 2, 13, 20, 30; Lys29 epsilon-amino: C18DA-gGlu-gGlu-gGlu-gGlu-gGlu-gGlu-eLys; C-terminal amide) [Compound 142] | – | – | 17.4 nM | 31.8 nM | 0.3 nM | 3.4 nM |
| YXEGTFTSDYSIXLEKQAQXAFVRHLINKXTRQRY (Aib at 2, 13, 20, 30; Lys29 epsilon-amino: C18DA-gGlu-gGlu-gGlu-gGlu-gGlu-gGlu-eLys; C-terminal amide) [Compound 92] | – | 2 nM | – | 22.6 nM | – | – |
| YXEGTFTSDYSIXLEEQAQXAFVRHLINKXTRQRY (Aib at 2, 20, 30; aMeL at 13; Lys29 epsilon-amino: C20DA-gGlu-gGlu-gGlu-gGlu-gGlu-gGlu-eLys; C-terminal amide) [Compound 89] | 0.2 nM | 1.7 nM | – | – | – | 0.9 nM |
| YXEGTFTSDLSIXLEKQAQXAFVRHLLNKXTRQRY (Aib at 2, 13, 20, 30; Lys29 epsilon-amino: C20DA-gGlu-gGlu-gGlu-gGlu-gGlu-gGlu-eLys; C-terminal amide) [Compound 115] | 7 nM | 9.8 nM | 10.1 nM | 107 nM | – | – |
| Y[Aib]EGTFTSDYSI[Aib]LDEQAQ[Aib]AFVRHLINK([εLys-εLys-γGlu-γGlu-γGlu-γGlu-γGlu-C20 diacid])[Aib]TRQRY-NH2 [Compound 155] | – | – | 6 nM | 63.1 nM | 0.7 nM | 6.1 nM |
| Y[Aib]EGTFTSDYSI[Aib]LEKQAE[Aib]AFVRHLINK([εLys-γGlu-γGlu-AEEA-γGlu-γGlu-γGlu-C20 diacid])[Aib]TRQRY-NH2 [Compound 162] | – | – | – | 43.8 nM | 0.7 nM | – |
| Y[Aib]EGTFTSDYSI[Aib]LEKQAQ[Aib]EFVRHLINK([εLys-γGlu-γGlu-γGlu-γGlu-C18 diacid])[Aib]TRQRY-NH2 [Compound 163] | – | – | – | 218 nM | 0.2 nM | 5.9 nM |
| Y[Aib]EGTFTSDYSI[Aib]LEKQAE[Aib]AFVRHLINK([εLys-AEEA-γGlu-γGlu-γGlu-γGlu-γGlu-C20 diacid])[Aib]TRQRY-NH2 [Compound 161] | 2 nM | 5 nM | – | – | – | – |
| Y[Aib]EGTFTSDYSI[Aib]LEKQAQ[Aib]AFVRHLINK([γDab-γGlu-γGlu-γGlu-γGlu-γGlu-γGlu-C18 diacid])[Aib]TRQRY-NH2 [Compound 120] | – | 4 nM | 23.9 nM | – | – | – |
| Y[Aib]EGTFTSDYSI[Aib]LEKQAQ[Aib]AFVRHLINK([dtOrn-γGlu-γGlu-γGlu-γGlu-γGlu-γGlu-C18 diacid])[Aib]TRQRY-NH2 (reading uncertain) [Compound 87] | – | 5.6 nM | 16.5 nM | – | – | – |
| Y[Aib]EGTFTSDYSI[Aib]LEKQAQ[Aib]AFVRHLINK([γGlu-γGlu-AEEA-γGlu-γGlu-γGlu-γGlu-C20 diacid])[Aib]TRQRY-NH2 [Compound 136] | – | – | 38.5 nM | 123 nM | 0.5 nM | 9.1 nM |
| Y[Aib]EGTFTSDYSI[Aib]LEKQAQ[Aib]AFVRHLINK([γGlu-γGlu-γGlu-γGlu-γGlu-γGlu-C18 diacid])[Aib]TRQRY-NH2 [Compound 134] | 1 nM | 4 nM | – | – | – | – |
